B1: EcoR124I HsdR subunit, wild type (enzyme)
chain: MTHQTHTIAESNNFIVLDKYIKAEPTGDSYQSESDLERELIQDLRNQGYEFISVKSQSAMLANVREQLQNLNGVVFNDSEWRRFTEQYLDNPSDGILDKTRKIHIDYICDFIFDDERLENIYLIDKKNLMRNKVQIIQQFEQAGSHANRYDVTILVNGLPLVQIELKKRGVAIREAFNQIHRYSKESFNSENSLFKYLQLFVISNGTDTRYFANTTKRDKNSFDFTMNWAKSDNTLIKDLKDFTATCFQKHTLLNVLVNYSVFDSSQTLLVMRPYQIAATERILWKIKSSFTAKNWSKPESGGYIWHTTGSGKTLTSFKAARLATELDFIDKVFFVVDRKDLDYQTMKEYQRFSPDSVNGSENTAGLKRNLDKDDNKIIVTTIQKLNNLMKAESDLPVYNQQVVFIFDECHRSQFGEAQKNLKKKFKRYYQFGFTGTPIFPENALGSETTASVFGRELHSYVITDAIRDEKVLKFKVDYNDVRPQFKSLETETDEKKLSAAENQQAFLHPMRIQEITQYILNNFRQKTHRTFPGSKGFNAMLAVSSVDAAKAYYATFKRLQEEAANKSATYKPLRIATIFSFAANEEQNAIGEISDETFDTSAMDSSAKEFLDAAIREYNSHFKTNFSTDSNGFQNYYRDLAQRVKNQDIDLLIVVGMFLTGFDAPTLNTLFVDKNLRYHGLMQAFSRTNRIYDATKTFGNIVTFRDLERSTIDAITLFGDKNTKNVVLEKSYTEYMEGFTDAATGEAKRGFMTVVSELEQRFPDPTSIESEKEKKDFVKLFGEYLRAENILQNYDEFATLKALQQIDLSDPVAVEKFKAEHYVDDEKFAELQTIRLPADRKIQDYRSAYNDIRDWQRREKEAEKKEKSTTDWDDVVFEVDLLKSQEINLDYILGLIFEHNRQNKGKGEMIEEVKRLIRSSLGNRAKEGLVVDFIQQTNLDDLPDKASIIDAFFTFAQREQQREAEALIKEENLNEDAAKRYIRTSLKREYATENGTELNETLPKLSPLNPQYKTKKQAVFQKIVSFIEKFKGVGGKI
B2: EcoR124I HsdR Y183F (enzyme)
chain: B1 chain with Y183F
B3: EcoR124I HsdR Q179K (enzyme)
chain: B1 chain with Q179K
B4: EcoR124I HsdR Y183A (enzyme)
chain: B1 chain with Y183A

Residue numbers refer to the chain shown, from its start. Names and notes keep the numbering of the source.

The target of the experiment is EcoR124I MTase (M2S1 complex) (UniProt P10484). Kind of experiment: native gel or EMSA.
Chain of UniProt P10484 (P10484 whole entry, chain 1 of 2): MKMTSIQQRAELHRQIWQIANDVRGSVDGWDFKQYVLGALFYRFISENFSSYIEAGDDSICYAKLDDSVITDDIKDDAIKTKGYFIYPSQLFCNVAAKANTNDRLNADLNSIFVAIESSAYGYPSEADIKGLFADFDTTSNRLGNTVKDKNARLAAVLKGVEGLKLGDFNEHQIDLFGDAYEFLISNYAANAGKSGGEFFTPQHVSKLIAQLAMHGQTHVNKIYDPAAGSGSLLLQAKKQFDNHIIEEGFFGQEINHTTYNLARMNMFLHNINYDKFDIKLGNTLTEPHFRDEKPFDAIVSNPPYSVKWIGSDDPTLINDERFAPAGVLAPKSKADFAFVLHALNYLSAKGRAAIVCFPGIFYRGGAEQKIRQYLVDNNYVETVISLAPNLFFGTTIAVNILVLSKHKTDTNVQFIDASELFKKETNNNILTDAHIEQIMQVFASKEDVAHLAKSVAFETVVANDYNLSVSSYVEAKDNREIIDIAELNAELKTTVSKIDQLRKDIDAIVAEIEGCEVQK
Chain of UniProt P10484 (P10485 whole entry, chain 2 of 2, further chain): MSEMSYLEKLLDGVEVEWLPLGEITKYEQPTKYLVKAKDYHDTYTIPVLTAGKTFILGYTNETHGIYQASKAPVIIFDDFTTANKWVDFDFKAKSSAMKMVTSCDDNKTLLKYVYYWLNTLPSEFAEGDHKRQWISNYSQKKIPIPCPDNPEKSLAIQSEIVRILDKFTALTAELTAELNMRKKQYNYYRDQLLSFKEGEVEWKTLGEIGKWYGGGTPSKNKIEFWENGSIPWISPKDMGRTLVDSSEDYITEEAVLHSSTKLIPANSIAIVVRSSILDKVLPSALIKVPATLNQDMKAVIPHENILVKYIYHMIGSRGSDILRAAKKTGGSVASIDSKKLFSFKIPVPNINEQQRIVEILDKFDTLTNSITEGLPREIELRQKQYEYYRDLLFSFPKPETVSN
With B1, the K1,app (first HsdR on the DNA-bound MTase, R1 complex) worked out at 15 nM.

Take B2: the K1,app (first HsdR on the DNA-bound MTase, R1 complex) came to 14 nM.

With B3, the K1,app (first HsdR on the DNA-bound MTase, R1 complex) worked out at 10 nM.

As to B4, the K1,app (first HsdR on the DNA-bound MTase, R1 complex) stood at 15 nM.
